B1: peptide derived from Jagged1 displayed by clone Jag-ecpX3 (peptide)
peptide: RVTCDDYYYGFGCNKFGRPA
notes: also called Jagged1-derived peptide; fragment of JAG1

The binders below were run against T1, human Notch1 EGF-like domains 11-13 fused to the Fc domain of human IgG1 (hN111-13-hFc) (human, UniProt P46531 411-526, biotinylated with NHS-PEG-biotin (hN111-13-hFc-biot) or labeled with DyLight-488, depending on the round) (assay: bacterial display library screen, magnetic selection and FACS with labeled hN111-13-hFc).
T1 construct: also called hN111-13-hFc-biot; hN111-13-hFc-Dy488; not shown: Fc domain of human IgG1 as encoded by pINFUSE-hIgG1-Fc2 (InvivoGen)
T1 sequence (P46531 411-526 limits assumed): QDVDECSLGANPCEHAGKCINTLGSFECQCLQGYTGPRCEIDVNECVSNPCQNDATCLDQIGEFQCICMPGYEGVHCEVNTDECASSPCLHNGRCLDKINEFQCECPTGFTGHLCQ
Description: Following two rounds of magnetic selection, the remaining rounds of screening were performed on a Becton Dickinson FACSAria flow cytometer. In the first round of FACS, induced cells were incubated with 500 nM hN1₁₁₋₁₃-hFc-biot, 10 μM hIgG in TBS-Ca-B, washed, and incubated with fluorescent secondary label neutravidin-phycoerythrin (NAPE) (Invitrogen) at 10 nM, before sorting by flow cytometry for fluorescently labeled cells. Cells amplified from overnight growth of the first round FACS population were induced and subjected to a second round of sorting with the same labeling conditions as in the first round or, alternatively, using 50 nM hN1₁₁₋₁₃-hFc-biot. A third round of sorting was conducted as in the second round but with 100 nM hN1₁₁₋₁₃-hFc-biot and the addition of 27 nM Ypet-Mona-SH3 in the secondary labeling step. Mona-SH3 binds an epitope on the C-terminus of the display scaffold, independent of the random peptide on the N-terminus. Cells were then sorted based on the ratio of 576 nm fluorescence (i.e. NAPE binding) to 530 nm fluorescence (i.e. Ypet-Mona binding) in order to normalize for differences in scaffold display level on individual cells.
Alternatively, third round sorting was conducted by incubating induced cells with 10 nM or alternatively, 50 nM unbiotinylated hN1₁₁₋₁₃-hFc in TBS-Ca-B before washing, labeling with fluorescent secondary 20 μg/ml anti-hIgG-DyLight-488, and sorting based on 530 nm fluorescence. Third round sorting was also conducted using either 50 nM or 250 nM hN1₁₁₋₁₃-hFc that had been fluorescently labeled with DyLight-488 (Thermo Pierce) (hN1₁₁₋₁₃-hFc-Dy488), and 10 μM hIgG, with no secondary labeling.

Row | Binder | binding result
1 | ACVIHFLDRISNILE [PHB3333] | binds
2 | CFPTVVWRELYNLYG [PHB3352] | binds
3 | IYPLDALLRHLNSLC [PHB3349] | binds
4 | ELTQLLNALVDVRNC [PHB3486] | binds
5 | TVLVIPDLHYLYVDR [PHB3337] | binds
6 | FCYIAAFSAMQRQSC [PHB3334] | binds
7 | FINNVETALDTIYNL [PHB3340] | binds
8 | PYTFVEQVEYWLHAT [PHB3327] | binds
9 | CYPSISWLFADAPRN [PHB3485] | binds
10 | ATCYIINHWVERYII [PHB3489] | binds
11 | FPLNTFDLVHELLSR [PHB3324] | binds
12 | SAKHLHPGRLPPMTK [PHB3341] | binds
13 | PLYLPEIGWMFGLPT [PHB3336] | binds
14 | ATMYAYLERLEAILS [PHB3343] | binds
15 | NLDFYLNHLYNTLAG [PHB3476] | binds
16 | EPKCSFCSPLIVPSP [PHB3479] | binds
17 | PNCIESFLSSIHDSL [PHB3480] | binds
18 | LLSSFVETMSSILTC [PHB3487] | binds
19 | FLNDIHRFLHWTDLM [PHB3325] | binds
20 | DFINSMRSHLQSSDQ [PHB3478] | binds
21 | TDNALFLETVQHYLY [PHB3482] | binds
22 | YLLRLPSLEELWGPS [PHB3488] | binds

The binders below were run against T1, human Notch1 EGF-like domains 11-13 … (assay: flow cytometry of induced E. coli clones, 100 nM hN111-13-hFc-biot then 10 nM SAPE, normalized to scaffold display level).
Description: Individual clones were tested by flow cytometry for hN1₁₁₋₁₃-hFc binding by labeling induced cells in TBS-Ca-B with (A.) 50 nM hN1₁₁₋₁₃-hFc-biot or (B.) 100 nM […] hN1₁₁₋₁₃-hFc-biot, followed by 10 nM Streptavidin-R-phycoerythrin (SAPE). Cells were separately labeled with 27 nM Ypet-Mona to measure peptide display level. The display scaffold alone (ecpX3) was used as a negative control.

Row | Binder | binding result
23 | B1 | binds
